This experiment addresses T1, recombinant human IL4 (human, UniProt P05112 25-153).
T1 construct: Bought protein; also called human IL4 (Millipore catalog # IL004)
T1 sequence (looked up): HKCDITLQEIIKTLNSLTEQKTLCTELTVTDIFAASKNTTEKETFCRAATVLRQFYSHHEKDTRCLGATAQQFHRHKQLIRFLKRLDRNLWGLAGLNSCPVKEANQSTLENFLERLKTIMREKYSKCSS
Put plainly: SPR (Biacore), captured antibody, IL4 as analyte.

As usually defined, the Kd is the free concentration of one partner at which half of the binding sites on the other are occupied at equilibrium, for simple one-to-one binding.

B1: Binding Protein 18, (anti-IL4 × anti-IL13) × anti-IL13 (bispecific antibody, human IgG1, kappa, lambda)
heavy 1: not shown
light 1: DIVLTQSPASLAVSLGQRATISCRASESVDSYGQSYMHWYQQKAGQPPKLLIYLASNLESGVPARFSGSGSRTDFTLTIDPVQAEDAATYYCQQNAEDSRTFGGGTKLEIKGQPKAAPSVTLFPPSSEELQANKATLVCLISDFYPGAVTVAWKADSSPVKAGVETTTPSKQSNNKYAASSYLSLTPEQWKSHRSYSCQVTHEGSTVEKTVAPTECS
heavy 2: not shown
light 2: not shown
notes: Bispecific trivalent (CODV-Fab) × Fab-IgG1 Fc; kappa on CODV-LC, lambda on Fab-arm-LC; CODV-HC knob-RF, Fab-arm-HC hole; also called IL13 × (IL4 × IL13)
Regarding B1, the dissociation constant (Kd) was 1.02 pM.
